This passage reports stoichiometry N results from article PMC11302929.

This test has as its target recombinant soluble NDV HN ectodomain with GCN4IL dimerization domain (HN-GCN4IL) (not stated | Newcastle disease virus). In words: SEC; Superdex 200 Increase 10/300 GL column, freshly purified NDV HN proteins. For orientation: SEC sorts molecules by how far they enter the pores of the column.

Where “and” joins values, the source holds several entries; their conditions need not be identical. Identical values can stand only once.

Consider “recombinant soluble NDV HN ectodomain with GCN4IL dimerization domain (HN-GCN4IL)”, for which the stoichiometry N was 2 and 4.

What is called stoichiometry N is a count of units in the complex or per binding partner.
